According to the supplement of paper PMC6757056:
± gives the standard deviation of the averaged measurements.

B1: library; a variant is named by its letters at N, in order (parent)
chain: GCUGUCACCGGUGCUUGGUACGUUAUAUUCAGCCGGUCUGAUGAGUCUNNNNNNAGACGAAACAGC

Assays:
(6R,S)-folinic acid [1] = variants of: B1; assay: normalized RNA/DNA level without ligand (relative to sTRSVctl = 100) (log10 (% of sTRSVctl)); HEK293T overexpressing SLC46A1; higher = less ribozyme self-cleavage, higher mRNA level; settings: without (6R,S)-folinic acid; ligand present: no
Procedure, shortened: (§1)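 Ribozyme switch library plasmids linked to reporters were introduced into HEK293T cells at 4 µg per 6-well well, with ligand, if any, added 1 h before. Total RNA was extracted with EDTA 72 h later, reverse-transcribed, amplified, barcoded and sequenced. RNA level was computed from RNA over DNA reads relative to a spiked-in non-cleaving sequence or the top sequences, then scaled and log-transformed. The top set was 25 sequences, values were ×100 and log10, and the cutoff was ≥100 DNA reads.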

(6R,S)-folinic acid [2] = variants of: B1; assay: normalized RNA/DNA level with ligand (relative to sTRSVctl = 100) (log10 (% of sTRSVctl)); HEK293T overexpressing SLC46A1; ligand concentration (+) RNA-Seq: 6 mM; higher = less ribozyme self-cleavage, higher mRNA level; settings: with (6R,S)-folinic acid; ligand present: yes
Procedure, shortened: as §1

| Variant | normalized RNA/DNA level without ligand (log10) ((6R,S)-folinic acid [1]) | normalized RNA/DNA level with ligand (log10) ((6R,S)-folinic acid [2]) |
| --- | --- | --- |
| UCUACC | 2.0547 ± 0.001 | 2.054 ± 0.018 |
| ACUACC | 2.03 ± 0.0033 | 2.01 ± 0.04 |
| CCUACG | 2.072 ± 0.0081 | 2.0351 ± 0.0014 |
| GCUACG | 2.026 ± 0.0068 | 2.065 ± 0.0045 |
| UCUACG | 1.891 ± 0.0021 | 2.01 ± 0.017 |
| ACUACG | 1.938 ± 0.0043 | 2.006 ± 0.02 |
| CCUACU | 2.062 ± 0.0069 | 2.04 ± 0.0079 |
| GCUACU | 2.019 ± 0.0099 | 1.98 ± 0.043 |
| UCUACU | 2.019 ± 0.0065 | 2.03 ± 0.029 |
| ACUACU | 2.022 ± 0.02 | 2.041 ± 0.0021 |
| CCUAGA | 2.05 ± 0.016 | 2.05 ± 0.046 |
| GCUAGA | 2.002 ± 0.0075 | 2.042 ± 0.012 |
| UCUAGA | 2.05 ± 0.024 | 2.043 ± 0.0037 |
| ACUAGA | 1.969 ± 0.014 | 2.01 ± 0.039 |
| GCUAGC | 2.035 ± 0.017 | 2.016 ± 0.012 |
| UCUAGC | 2.03 ± 0.024 | 2.02 ± 0.051 |
| ACUAGC | 2 ± 0.011 | 2.02 ± 0.025 |
| CCUAGG | 2.05 ± 0.03 | 2.043 ± 0.0025 |
| GCUAGG | 1.951 ± 0.016 | 2.031 ± 0.0073 |
| UCUAGG | 1.982 ± 0.015 | 2.05 ± 0.026 |

| Variant | normalized RNA/DNA level without ligand (log10) ((6R,S)-folinic acid [1]) | normalized RNA/DNA level with ligand (log10) ((6R,S)-folinic acid [2]) |
| --- | --- | --- |
| ACUAGG | 1.912 ± 0.015 | 1.99 ± 0.038 |
| CCUAGU | 2.074 ± 0.0064 | 2.06 ± 0.029 |
| GCUAGU | 1.98 ± 0.024 | 2.01 ± 0.046 |
| UCUAGU | 1.984 ± 0.0028 | 2.04 ± 0.032 |
| ACUAGU | 2.02 ± 0.02 | 2.05 ± 0.026 |
| CCUAUA | 2.029 ± 0.0081 | 2.01 ± 0.033 |
| UCUAUA | 2 ± 0.032 | 2.04 ± 0.025 |
| ACUAUA | 1.983 ± 0.012 | 2.013 ± 0.0097 |
| CCUAUC | 2.1 ± 0.023 | 2.0649 ± 0.0011 |
| GCUAUC | 2.083 ± 0.0023 | 2.013 ± 0.019 |
| UCUAUC | 2.07 ± 0.024 | 2.062 ± 0.0087 |
| ACUAUC | 2.063 ± 0.0022 | 2.04 ± 0.038 |
| CCUAUG | 2.04 ± 0.031 | 2.06 ± 0.028 |
| GCUAUG | 1.99 ± 0.022 | 2.02 ± 0.035 |
| UCUAUG | 1.832 ± 0.017 | 2.022 ± 0.0024 |
| ACUAUG | 1.9049 ± 0.00034 | 2.008 ± 0.016 |
| CCUAUU | 2.038 ± 0.0071 | 2.04 ± 0.022 |
| GCUAUU | 2.054 ± 0.013 | 2.04 ± 0.041 |
| UCUAUU | 2.048 ± 0.0024 | 2.046 ± 0.0024 |
| ACUAUU | 2.027 ± 0.0052 | 2.02 ± 0.043 |

| Variant | normalized RNA/DNA level without ligand (log10) ((6R,S)-folinic acid [1]) | normalized RNA/DNA level with ligand (log10) ((6R,S)-folinic acid [2]) |
| --- | --- | --- |
| CCUCAA | 2.0335 ± 0.00095 | 2 ± 0.059 |
| UCUCAA | 1.96 ± 0.0096 | 1.98 ± 0.024 |
| CCUCAC | 2.0541 ± 0.0006 | 2.027 ± 0.013 |
| UCUCAC | 2.098 ± 0.0045 | 2.04 ± 0.035 |
| ACUCAC | 2.058 ± 0.007 | 2.045 ± 0.0072 |
| CCUCAG | 1.94 ± 0.024 | 1.96 ± 0.0042 |
| GCUCAG | 1.96 ± 0.0025 | 2.02 ± 0.03 |
| UCUCAG | 1.958 ± 0.012 | 1.98 ± 0.027 |
| ACUCAG | 1.967 ± 0.0061 | 1.98 ± 0.036 |
| CCUCAU | 2.03 ± 0.025 | 2 ± 0.054 |
| UCUCAU | 2.032 ± 0.015 | 2.023 ± 0.011 |
| GCUCCA | 2.02 ± 0.019 | 2.03 ± 0.037 |
| UCUCCA | 2.017 ± 0.0042 | 2.023 ± 0.0081 |
| ACUCCA | 2.056 ± 0.0064 | 2.04 ± 0.054 |
| CCUCCC | 2.095 ± 0.016 | 2.0404 ± 0.0018 |
| GCUCCC | 2.06 ± 0.031 | 2.06 ± 0.036 |
| UCUCCC | 2.07 ± 0.021 | 2.06 ± 0.05 |
| ACUCCC | 2.054 ± 0.0096 | 2.02 ± 0.048 |
